Columns and labels:
[1] = molecular target: p65 phosphorylation-deficient mutant S276A (UniProt Q04206)
[2] = molecular target: nuclear factor-κB (NF-κB) p65 subunit, human, wild type (UniProt Q04206)
p65 mutant S536A = p65 mutant S536A (UniProt Q04206)
Sequence of p65 mutant S536A (Q04206 whole entry S536A): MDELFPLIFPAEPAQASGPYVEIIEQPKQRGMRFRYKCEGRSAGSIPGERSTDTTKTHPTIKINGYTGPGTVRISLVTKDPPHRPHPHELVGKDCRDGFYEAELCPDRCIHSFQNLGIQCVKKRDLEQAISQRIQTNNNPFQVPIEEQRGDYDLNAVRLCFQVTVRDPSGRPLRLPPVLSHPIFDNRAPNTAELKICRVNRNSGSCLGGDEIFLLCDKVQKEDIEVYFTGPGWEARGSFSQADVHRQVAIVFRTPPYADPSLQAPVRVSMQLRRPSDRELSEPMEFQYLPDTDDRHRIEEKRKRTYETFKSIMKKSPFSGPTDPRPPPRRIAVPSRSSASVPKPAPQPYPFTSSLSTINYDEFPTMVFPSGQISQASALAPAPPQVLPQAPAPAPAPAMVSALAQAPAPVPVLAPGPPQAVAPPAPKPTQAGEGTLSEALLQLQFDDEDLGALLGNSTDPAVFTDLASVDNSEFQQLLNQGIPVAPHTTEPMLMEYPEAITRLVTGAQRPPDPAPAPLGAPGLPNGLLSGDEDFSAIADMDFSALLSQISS

Sequence of p65 phosphorylation-deficient mutant S276A (Q04206 whole entry S276A): as the sequence (Q04206 whole entry S536A) above, with S276A, A536S counted along it
Sequence of nuclear factor-κB (NF-κB) p65 subunit, human, wild type (Q04206 whole entry): as the sequence (Q04206 whole entry S536A) above, with A536S counted along it

Row | Substance | NF-κB promoter activity [1] | NF-κB promoter activity [2] | phosphorylation of p65 (Phos-tag PAGE) [2] | intensity ratio of PKA-Cβ-induced phosphorylation (Phos-tag PAGE) [1] | intensity ratio of PKA-Cβ-induced phosphorylation (Phos-tag PAGE) (p65 mutant S536A)
1 | PKA-Cβ1, human | which was abrogated by co-expressing the S276A mutant of p65 | Co-transfection with PKA-Cβ1 significantly enhanced the p65-induced NF-κB promoter activity | the overexpression of PKA-Cβ1, the major subtype of Cβ in BEAS-2B cells, induced the phosphorylation of p65, which was inhibited by H89 | – | –
2 | protein kinase A catalytic subunit β (PKA-Cβ), human | – | – | – | The intensity ratio of PKA-Cβ-induced phosphorylation was decreased in S276A- and S536A-transfected cells compared to the wild-type p65-transfected cells | The intensity ratio of PKA-Cβ-induced phosphorylation was decreased in S276A- and S536A-transfected cells compared to the wild-type p65-transfected cells

Source: patent US11045456
